From patent publication US20100081621, “Crystal structure of the catalytic domain of the viral restriction factor APOBEC3G” (published 2010) come the findings set out here.

One data set addresses APOBEC3G D316R/D317R (Homo sapiens, UniProt Q9HC16 Q9HC16:1-384, D316R,D317R). The data set is described as follows: FP; higher binding than wt; 5 mM MgCl2, 37 C. The settings on record: tags: Sf9, pAcG2T; label: internal fluorescein-dT. The protocol: Apo3G-DNA binding were monitored by changes in steady state fluorescence depolarization (rotational anisotropy). Reaction mixtures (70 μl), containing an F-labeled DNA ([…]) in buffer (50 mM HEPES, pH 7.3, 1 mM DTT and 5 mM MgCl₂) and varying concentration of 0 to 500 nM Apo3G, were incubated at 37° C. The sequence of the ssDNA is: tta gat gag tgt aa(FdT) gtg ata tat gtg tat. Rotational anisotropy was measured as described previously (Chelico et al., 2006). The fraction of DNA bound to protein was determined as described previously (Bertram et al., 2004).

For data set [1], the target named is APOBEC3G full-length (E. coli) (Homo sapiens, UniProt Q9HC16 Q9HC16:1-384). The experiment in a line: processive deamination with bias to the 5' CCC. The settings on record: tags: GST, pGEX-6P1, E. coli; label: internal fluorescein-dT. From the text:
(§1) FIG. 1B is Apo3G processivity and 3′_{—}5′ deamination bias was characterized on an 85-nt internally F-labeled ssDNA with two CCC motifs 30-nt apart. Single deaminations of the 5′C and 3′C that are spaced by 30-nt on the ssDNA substrate are detected as the appearance of labeled 67- and 48-nt fragments, respectively; double deamination of both Cs on the same molecule results in 30-nt labeled fragment (5′C and 3′C). Substrate usage (%) is less than 15% to maintain single-hit kinetics. The ‘Processivity factor’ is defined as the ratio of the observed fraction of double deaminations (occurring at both 5′C and 3′C on the same molecule) to the predicted fraction of independent double deaminations (Chelico et al., 2006). […] The deamination bias is measured by the ratio of 5′C/3′C deaminations. Deamination patterns are shown using full length Apo3G (lane 2) and Apo3G-CD2 (lanes 3, 4). As a control, no Apo3G or Apo3G-CD2 enzyme was added in lane 1.
(§2) Apo3G (0.024-μM) was allowed to react with 500 nM FdT incorporated ssDNA for […] and subsequently treated with UDG and resolved on 16% UREA PAGE for analysis as described previously¹⁰. Specific activity, measured as fmoles substrate deaminated per pg enzyme per minute, was calculated from the percent deamination of an ssDNA substrate over a range of enzyme concentrations. […]

A further data set has as its target APOBEC3G-CD2 (Homo sapiens, UniProt Q9HC16 Q9HC16:197-380). The experiment in a line: about 2-fold decrease in processivity and polarity. The settings on record: tags: GST removed by PreScission protease; label: internal fluorescein-dT.
Text: as §1, §2

Sequence of APOBEC3G-CD2 (Q9HC16 197-380, one chain of several): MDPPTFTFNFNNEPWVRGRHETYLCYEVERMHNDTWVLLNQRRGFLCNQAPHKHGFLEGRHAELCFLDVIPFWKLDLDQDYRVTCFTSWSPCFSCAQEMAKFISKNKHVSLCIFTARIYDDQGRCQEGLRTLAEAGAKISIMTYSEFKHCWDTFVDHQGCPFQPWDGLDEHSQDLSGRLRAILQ
Sequence of APOBEC3G full-length (E. coli) (Q9HC16 whole entry, the tested form may be a part, one chain of several): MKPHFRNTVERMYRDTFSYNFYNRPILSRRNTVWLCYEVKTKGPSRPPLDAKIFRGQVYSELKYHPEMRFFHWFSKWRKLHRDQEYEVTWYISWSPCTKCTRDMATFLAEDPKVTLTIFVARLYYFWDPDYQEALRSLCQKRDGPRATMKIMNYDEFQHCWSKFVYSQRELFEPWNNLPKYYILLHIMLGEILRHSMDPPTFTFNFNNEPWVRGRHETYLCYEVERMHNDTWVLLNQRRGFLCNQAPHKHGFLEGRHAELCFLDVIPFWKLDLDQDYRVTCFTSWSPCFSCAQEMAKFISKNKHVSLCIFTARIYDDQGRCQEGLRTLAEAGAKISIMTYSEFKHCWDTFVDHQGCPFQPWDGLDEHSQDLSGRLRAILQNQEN
Sequence of APOBEC3G D316R/D317R (Q9HC16 whole entry D316R/D317R, one chain of several): as the sequence (Q9HC16 whole entry, the tested form may be a part, one chain of several) above, with D316R, D317R counted along it

On to TTAGATGAGTGTAATGTGATATATGTGTAT (ssDNA, [15 (fluorescein-dT)]) [anisotropy ssDNA], for which, in the data set with APOBEC3G D316R/D317R, the binding signal was 2 fold of wt.

B1: 85-nt processivity ssDNA (ssDNA)
DNA: AAAGAGAAAGTGATACCCAAAGAGTAAAGTTAGATAGAGAGTGATACCCAAAGAGTAAAGTTAGTAAGATGTGTAAGTATGTTAA
modifications: [31 (FdT = fluorescein-dT, written as T)]
Turning to B1, the binding result (in data set [1]; with APOBEC3G-CD2) was “binds” in each case.
